Laboratory results published in the supplement of paper PMC9112550, “Optimization of the antimicrobial peptide Bac7 by deep mutational scanning” (BMC Biology, 2022).

Test system: Escherichia coli TOP10
Assay: shrunken log2 fold change of peptide-encoding DNA abundance (4.5 h post-induction vs induction); higher = less antimicrobial activity (less host growth inhibition)
Settings: time post-induction: 4.5 h; library: site-saturation at positions 5, 18, 19, 20
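Note: peptides expressed intracellularly from a pBAD plasmid library in pooled LB shake-flask culture, induced with 0.3% L-arabinose, DNA abundance read by NGS, three biological replicates, DESeq2 with apeglm shrinkage.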

Sequence	shrunken log2 fold change
RRIRNRPPRLPRPRPRPCQHPRP	-0.0585
RRIRFRPPRLPRPRPRPSGLPRP	-0.237
RRIRLRPPRLPRPRPRPSLYPRP	-0.431
RRIRKRPPRLPRPRPRPMSEPRP	0.148
RRIRGRPPRLPRPRPRPDQNPRP	0.00612
RRIRERPPRLPRPRPRPRMVPRP	-0.462
RRIRCRPPRLPRPRPRPPYAPRP	0.141
RRIRRRPPRLPRPRPRPFPWPRP	-0.0263
RRIRSRPPRLPRPRPRPSHGPRP	-0.19
RRIRSRPPRLPRPRPRPHSKPRP	-0.486
RRIRVRPPRLPRPRPRPMCAPRP	0.137
RRIRTRPPRLPRPRPRPGMVPRP	0.279
RRIRTRPPRLPRPRPRPDYDPRP	0.00888
RRIRVRPPRLPRPRPRPTKFPRP	-0.248
RRIRTRPPRLPRPRPRPMRKPRP	0.375
RRIRERPPRLPRPRPRPMCEPRP	0.0303
RRIRYRPPRLPRPRPRPIVAPRP	-0.246
RRIRERPPRLPRPRPRPMMHPRP	0.0413
RRIRVRPPRLPRPRPRPPPPPRP	1
RRIRDRPPRLPRPRPRPHQQPRP	-0.0346
RRIRNRPPRLPRPRPRPLWTPRP	-0.247
RRIRWRPPRLPRPRPRPYGIPRP	-0.00133
RRIRLRPPRLPRPRPRPQHTPRP	-0.418
RRIRSRPPRLPRPRPRPSWFPRP	-0.268
RRIRVRPPRLPRPRPRPNNAPRP	-0.0777

Sequence	shrunken log2 fold change
RRIRVRPPRLPRPRPRPREVPRP	0.089
RRIRRRPPRLPRPRPRPKRLPRP	0.191
RRIRWRPPRLPRPRPRPWLLPRP	-0.0799
RRIRTRPPRLPRPRPRPEEAPRP	-0.0948
RRIRRRPPRLPRPRPRPWPRPRP	0.349
RRIRKRPPRLPRPRPRPFAEPRP	0.266
RRIRSRPPRLPRPRPRPENGPRP	0.0751
RRIRPRPPRLPRPRPRPEAEPRP	0.979
RRIRHRPPRLPRPRPRPAIFPRP	-0.00284
RRIRVRPPRLPRPRPRPFWPPRP	0.162
RRIRPRPPRLPRPRPRPAYSPRP	-0.23
RRIRARPPRLPRPRPRPQNHPRP	-0.446
RRIRDRPPRLPRPRPRPTEWPRP	0.531
RRIRLRPPRLPRPRPRPSDKPRP	-0.179
RRIRMRPPRLPRPRPRPESEPRP	3.39
RRIRERPPRLPRPRPRPEPWPRP	0.0721
RRIRERPPRLPRPRPRPKAYPRP	-0.00666
RRIRDRPPRLPRPRPRPRWWPRP	0.0238
RRIRFRPPRLPRPRPRPYYCPRP	-0.74
RRIRYRPPRLPRPRPRPCVEPRP	-0.0115
RRIRWRPPRLPRPRPRPSEPPRP	-0.266
RRIRIRPPRLPRPRPRPMGVPRP	-0.0148
RRIRNRPPRLPRPRPRPHMAPRP	-0.401
RRIRQRPPRLPRPRPRPAQDPRP	0.226
RRIRGRPPRLPRPRPRPGAGPRP	1.05

Sequence	shrunken log2 fold change
RRIRRRPPRLPRPRPRPMQKPRP	0.026
RRIRARPPRLPRPRPRPQHWPRP	0.0917
RRIRIRPPRLPRPRPRPCLGPRP	-0.157
RRIRCRPPRLPRPRPRPVPWPRP	-0.139
RRIRRRPPRLPRPRPRPWFMPRP	-0.125
RRIRWRPPRLPRPRPRPCHGPRP	0.0694
RRIRQRPPRLPRPRPRPQPRPRP	0.48
RRIRVRPPRLPRPRPRPLEIPRP	-0.073
RRIRKRPPRLPRPRPRPSHKPRP	-0.262
RRIRTRPPRLPRPRPRPKYLPRP	-0.0222
RRIRKRPPRLPRPRPRPDPKPRP	0.549
RRIRWRPPRLPRPRPRPVDAPRP	0.434
RRIRTRPPRLPRPRPRPRCMPRP	-0.288
RRIRRRPPRLPRPRPRPEMCPRP	0.11
RRIRFRPPRLPRPRPRPMYSPRP	-0.73
RRIRVRPPRLPRPRPRPETRPRP	0.577
RRIRMRPPRLPRPRPRPQTQPRP	2.46
RRIRWRPPRLPRPRPRPRSLPRP	-0.115
RRIRPRPPRLPRPRPRPNEFPRP	-0.0949
RRIRLRPPRLPRPRPRPHKYPRP	-0.559
RRIRCRPPRLPRPRPRPIGAPRP	-0.0968
RRIRNRPPRLPRPRPRPSKDPRP	-0.285
RRIRRRPPRLPRPRPRPMSAPRP	0.128
RRIRGRPPRLPRPRPRPRYQPRP	0.615
RRIRNRPPRLPRPRPRPCHSPRP	-0.539
